Assay results reported in IntAct's records for PubMed 31515488.

B1: Adiponectin (Homo sapiens), Q15848 (parent)
chain: MLLLGAVLLLLALPGHDQETTTQGPGVLLPLPKGACTGWMAGIPGHPGHNGAPGRDGRDGTPGEKGEKGDPGLIGPKGDIGETGVPGAEGPRGFPGIQGRKGEPGEGAYVYRSAFSVGLETYVTIPNMPIRFTKIFYNQQNHYDGSTGKFHCNIPGLYYFAYHITVYMKDVKVSLFKKDKAMLFTYDQYQENNVDQASGSVLLHLEVGDQVWLQVYGEGERNGLYADNDNDSTFTGFLLYHDTN
B2: Zinc finger protein 488 (Homo sapiens), Q96MN9 (parent)
chain: MPEWPPCLSVAPALVITMAAGKGAPLSPSAENRWRLSEPELGRGCKPVLLEKTNRLGPEAAVGRAGRDVGSAELALLVAPGKPRPGKPLPPKTRGEQRQSAFTELPRMKDRQVDAQAQEREHDDPTGQPGAPQLTQNIPRGPAGSKVFSVWPSGARSEQRSAFSKPTKRPAERPELTSVFPAGESADALGELSGLLNTTDLACWGRLSTPKLLVGDLWNLQALPQNAPLCSTFLGAPTLWLEHTQAQVPPPSSSSTTSWALLPPTLTSLGLSTQNWCAKCNLSFRLTSDLVFHMRSHHKKEHAGPDPHSQKRREEALACPVCQEHFRERHHLSRHMTSHS
B3: Phospholipase A and acyltransferase 4 (Homo sapiens), Q9UL19 (parent)
chain: MASPHQEPKPGDLIEIFRLGYEHWALYIGDGYVIHLAPPSEYPGAGSSSVFSVLSNSAEVKRERLEDVVGGCCYRVNNSLDHEYQPRPVEVIISSAKEMVGQKMKYSIVSRNCEHFVTQLRYGKSRCKQVEKAKVEVGVATALGILVVAGCSFAIRRYQKKATA
B4: DnaJ homolog subfamily C member 30, mitochondrial (Homo sapiens), Q96LL9 (parent)
chain: MAAMRWRWWQRLLPWRLLQARGFPQNSAPSLGLGARTYSQGDCSYSRTALYDLLGVPSTATQAQIKAAYYRQCFLYHPDRNSGSAEAAERFTRISQAYVVLGSATLRRKYDRGLLSDEDLRGPGVRPSRTPAPDPGSPRTPPPTSRTHDGSRASPGANRTMFNFDAFYQAHYGEQLERERRLRARREALRKRQEYRSMKGLRWEDTRDTAAIFLIFSIFIIIGFYI
partner: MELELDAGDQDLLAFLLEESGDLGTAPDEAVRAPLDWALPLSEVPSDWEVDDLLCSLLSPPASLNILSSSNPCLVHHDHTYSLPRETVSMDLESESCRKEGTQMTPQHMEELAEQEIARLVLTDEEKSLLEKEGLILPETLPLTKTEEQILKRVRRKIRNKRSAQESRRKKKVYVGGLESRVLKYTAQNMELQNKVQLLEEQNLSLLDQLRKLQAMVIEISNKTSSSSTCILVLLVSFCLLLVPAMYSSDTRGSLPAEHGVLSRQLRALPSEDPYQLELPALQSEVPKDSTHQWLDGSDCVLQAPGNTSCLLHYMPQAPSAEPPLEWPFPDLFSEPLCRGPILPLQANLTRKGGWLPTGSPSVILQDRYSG
B5: Calcium-binding and coiled-coil domain-containing protein 2 (Homo sapiens), Q13137 (parent)
chain: MEETIKDPPTSAVLLDHCHFSQVIFNSVEKFYIPGGDVTCHYTFTQHFIPRRKDWIGIFRVGWKTTREYYTFMWVTLPIDLNNKSAKQQEVQFKAYYLPKDDEYYQFCYVDEDGVVRGASIPFQFRPENEEDILVVTTQGEVEEIEQHNKELCKENQELKDSCISLQKQNSDMQAELQKKQEELETLQSINKKLELKVKEQKDYWETELLQLKEQNQKMSSENEKMGIRVDQLQAQLSTQEKEMEKLVQGDQDKTEQLEQLKKENDHLFLSLTEQRKDQKKLEQTVEQMKQNETTAMKKQQELMDENFDLSKRLSENEIICNALQRQKERLEGENDLLKRENSRLLSYMGLDFNSLPYQVPTSDEGGARQNPGLAYGNPYSGIQESSSPSPLSIKKCPICKADDICDHTLEQQQMQPLCFNCPICDKIFPATEKQIFEDHVFCHSL
partner: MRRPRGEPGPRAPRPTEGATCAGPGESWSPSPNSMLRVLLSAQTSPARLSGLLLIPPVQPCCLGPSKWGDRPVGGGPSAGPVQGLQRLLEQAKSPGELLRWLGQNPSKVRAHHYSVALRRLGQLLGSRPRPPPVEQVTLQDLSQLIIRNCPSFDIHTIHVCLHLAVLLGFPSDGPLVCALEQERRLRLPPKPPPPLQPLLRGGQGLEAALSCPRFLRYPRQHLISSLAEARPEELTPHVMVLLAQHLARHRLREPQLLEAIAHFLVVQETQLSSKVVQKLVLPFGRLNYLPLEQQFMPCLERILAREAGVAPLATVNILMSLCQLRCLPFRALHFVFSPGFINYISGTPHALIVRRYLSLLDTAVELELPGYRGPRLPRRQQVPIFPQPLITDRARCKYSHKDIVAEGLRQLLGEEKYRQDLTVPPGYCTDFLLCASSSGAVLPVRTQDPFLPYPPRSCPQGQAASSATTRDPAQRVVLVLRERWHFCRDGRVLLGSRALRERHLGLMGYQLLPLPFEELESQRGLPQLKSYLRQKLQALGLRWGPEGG
B6: F-BAR domain only protein 1 (Homo sapiens), O14526 (parent)
chain: MSYFGEHFWGEKNHGFEVLYHSVKQGPISTKELADFIRERATIEETYSKAMAKLSKLASNGTPMGTFAPLWEVFRVSSDKLALCHLELTRKLQDLIKDVLRYGEEQLKTHKKCKEEVVSTLDAVQVLSGVSQLLPKSRENYLNRCMDQERLRRESTSQKEMDKAETKTKKAAESLRRSVEKYNSARADFEQKMLDSALRFQAMEETHLRHMKALLGSYAHSVEDTHVQIGQVHEEFKQNIENVSVEMLLRKFAESKGTGREKPGPLDFEAYSAAALQEAMKRLRGAKAFRLPGLSRREREPEPPAAVDFLEPDSGTCPEVDEEGFTVRPDVTQNSTAEPSRFSSSDSDFDDEEPRKFYVHIKPAPARAPACSPEAAAAQLRATAGSLILPPGPGGTMKRHSSRDAAGKPQRPRSAPRTSSCAERLQSEEQVSKNLFGPPLESAFDHEDFTGSSSLGFTSSPSPFSSSSPENVEDSGLDSPSHAAPGPSPDSWVPRPGTPQSPPSCRAPPPEARGIRAPPLPDSPQPLASSPGPWGLEALAGGDLMPAPADPTAREGLAAPPRRLRSRKVSCPLTRSNGDLSRSLSPSPLGSSAASTALERPSFLSQTGHGVSRGPSPVVLGSQDALPIATAFTEYVHAYFRGHSPSCLARVTGELTMTFPAGIVRVFSGTPPPPVLSFRLVHTTAIEHFQPNADLLFSDPSQSDPETKDFWLNMAALTEALQRQAEQNPTASYYNVVLLRYQFSRPGPQSVPLQLSAHWQCGATLTQVSVEYGYRPGATAVPTPLTNVQILLPVGEPVTNVRLQPAATWNLEEKRLTWRLPDVSEAGGSGRLSASWEPLSGPSTPSPVAAQFTSEGTTLSGVDLELVGSGYRMSLVKRRFATGMYLVSC
B7: Cyclin-H (Homo sapiens), P51946 (parent)
chain: MYHNSSQKRHWTFSSEEQLARLRADANRKFRCKAVANGKVLPNDPVFLEPHEEMTLCKYYEKRLLEFCSVFKPAMPRSVVGTACMYFKRFYLNNSVMEYHPRIIMLTCAFLACKVDEFNVSSPQFVGNLRESPLGQEKALEQILEYELLLIQQLNFHLIVHNPYRPFEGFLIDLKTRYPILENPEILRKTADDFLNRIALTDAYLLYTPSQIALTAILSSASRAGITMESYLSESLMLKENRTCLSQLLDIMKSMRNLVKKYEPPRSEEVAVLKQKLERCHSAELALNVITKKRKGYEDDDYVSKKSKHEEEEWTDDDLVESL
partner: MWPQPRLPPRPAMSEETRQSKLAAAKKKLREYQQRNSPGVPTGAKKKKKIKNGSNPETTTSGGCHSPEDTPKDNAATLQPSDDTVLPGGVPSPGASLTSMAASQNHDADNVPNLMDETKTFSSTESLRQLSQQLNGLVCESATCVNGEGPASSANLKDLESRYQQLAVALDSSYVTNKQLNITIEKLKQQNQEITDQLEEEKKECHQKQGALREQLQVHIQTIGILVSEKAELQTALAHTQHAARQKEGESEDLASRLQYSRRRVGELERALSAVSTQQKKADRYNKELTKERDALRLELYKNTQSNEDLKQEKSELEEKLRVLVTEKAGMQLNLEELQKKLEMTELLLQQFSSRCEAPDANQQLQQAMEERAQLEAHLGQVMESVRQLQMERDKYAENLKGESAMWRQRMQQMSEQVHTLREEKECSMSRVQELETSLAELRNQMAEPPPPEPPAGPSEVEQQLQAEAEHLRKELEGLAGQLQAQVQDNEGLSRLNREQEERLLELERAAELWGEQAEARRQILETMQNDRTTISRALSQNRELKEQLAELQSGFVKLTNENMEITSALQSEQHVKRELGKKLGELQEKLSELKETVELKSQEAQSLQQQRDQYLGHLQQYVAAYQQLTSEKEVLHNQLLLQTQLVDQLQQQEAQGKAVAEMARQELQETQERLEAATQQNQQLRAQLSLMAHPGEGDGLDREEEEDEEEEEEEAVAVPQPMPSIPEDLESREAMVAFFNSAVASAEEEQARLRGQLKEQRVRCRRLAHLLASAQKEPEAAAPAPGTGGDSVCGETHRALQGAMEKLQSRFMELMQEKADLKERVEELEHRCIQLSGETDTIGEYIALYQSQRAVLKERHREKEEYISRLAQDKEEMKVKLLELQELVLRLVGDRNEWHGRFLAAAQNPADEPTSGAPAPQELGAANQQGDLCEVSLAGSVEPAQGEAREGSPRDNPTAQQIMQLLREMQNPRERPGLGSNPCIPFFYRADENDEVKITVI
B8: Regulator of G-protein signaling 20 (Homo sapiens), O76081 (parent)
chain: MPQLSQDNQECLQKHFSRPSIWTQFLPLFRAQRYNTDIHQITENEGDLRAVPDIKSFPPAQLPDSPAAPKLFGLLSSPLSSLARFFSHLLRRPPPEAPRRRLDFSPLLPALPAARLSRGHEELPGRLSLLLGAALALPGRPSGGRPLRPPHPVAKPREEDATAGQSSPMPQMGSERMEMRKRQMPAAQDTPGAAPGQPGAGSRGSNACCFCWCCCCSCSCLTVRNQEDQRPTIASHELRADLPTWEESPAPTLEEVNAWAQSFDKLMVTPAGRNAFREFLRTEFSEENMLFWMACEELKKEANKNIIEEKARIIYEDYISILSPKEVSLDSRVREVINRNMVEPSQHIFDDAQLQIYTLMHRDSYPRFMNSAVYKDLLQSLSEKSIEA
B9: Asc-type amino acid transporter 1 (Homo sapiens), Q9NS82 (parent)
chain: MAGHTQQPSGRGNPRPAPSPSPVPGTVPGASERVALKKEIGLLSACTIIIGNIIGSGIFISPKGVLEHSGSVGLALFVWVLGGGVTALGSLCYAELGVAIPKSGGDYAYVTEIFGGLAGFLLLWSAVLIMYPTSLAVISMTFSNYVLQPVFPNCIPPTTASRVLSMACLMLLTWVNSSSVRWATRIQDMFTGGKLLALSLIIGVGLLQIFQGHFEELRPSNAFAFWMTPSVGHLALAFLQGSFAFSGWNFLNYVTEEMVDARKNLPRAIFISIPLVTFVYTFTNIAYFTAMSPQELLSSNAVAVTFGEKLLGYFSWVMPVSVALSTFGGINGYLFTYSRLCFSGAREGHLPSLLAMIHVRHCTPIPALLVCCGATAVIMLVGDTYTLINYVSFINYLCYGVTILGLLLLRWRRPALHRPIKVNLLIPVAYLVFWAFLLVFSFISEPMVCGVGVIIILTGVPIFFLGVFWRSKPKCVHRLTESMTHWGQELCFVVYPQDAPEEEENGPCPPSLLPATDKPSKPQ
partner: B4 partner

Variants of: B1
Settings: with sgta_human SGTA
Target sequence in this assay (O43765 whole entry): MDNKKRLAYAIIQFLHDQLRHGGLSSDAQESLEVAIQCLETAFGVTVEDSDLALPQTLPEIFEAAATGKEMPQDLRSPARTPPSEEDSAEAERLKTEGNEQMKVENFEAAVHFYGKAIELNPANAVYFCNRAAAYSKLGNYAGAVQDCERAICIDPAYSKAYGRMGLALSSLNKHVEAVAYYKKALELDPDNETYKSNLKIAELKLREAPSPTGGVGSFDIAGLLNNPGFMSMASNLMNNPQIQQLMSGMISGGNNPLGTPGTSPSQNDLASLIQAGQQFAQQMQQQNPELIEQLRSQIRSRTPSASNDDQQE

effect of a mutation on the interaction | Variant
with no effect | Y111H

Variants of: B2
Settings: with rbpms_human RBPMS

effect of a mutation on the interaction | Variant
with no effect | C230R

Variants of: B3
Settings: with sgta_human SGTA
Target sequence in this assay (O43765 whole entry): as above

effect of a mutation on the interaction | Variant
disrupting interaction strength | T141M

Variants of: B4
Settings: with creb3_human CREB3, O43889

effect of a mutation on the interaction | Variant
with no effect | T48K

Variants of: B5
Settings: with fastk_human FASTK

effect of a mutation on the interaction | Variant
with no effect | V248A

Variants of: B6
Settings: with ptk6_human PTK6, Q13882

effect of a mutation on the interaction | Variant
with no effect | E423G

Variants of: B6
Settings: with exos5_human EXOSC5, Q9NQT4
exos5_human EXOSC5, Q9NQT4, sequence (Q9NQT4 whole entry): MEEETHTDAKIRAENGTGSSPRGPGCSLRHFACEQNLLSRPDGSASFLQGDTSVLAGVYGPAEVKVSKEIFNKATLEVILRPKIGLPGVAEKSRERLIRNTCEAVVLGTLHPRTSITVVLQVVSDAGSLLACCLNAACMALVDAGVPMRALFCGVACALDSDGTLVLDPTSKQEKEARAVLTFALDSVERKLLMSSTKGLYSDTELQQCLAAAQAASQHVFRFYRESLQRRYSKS

effect of a mutation on the interaction | Variant
with no effect | E423G

Variants of: B7
Settings: with goga2_human GOLGA2, Q08379

effect of a mutation on the interaction | Variant
disrupting interaction strength | N155T

Variants of: B8
Settings: with otx1_human OTX1, P32242
otx1_human OTX1, P32242, sequence (P32242 whole entry): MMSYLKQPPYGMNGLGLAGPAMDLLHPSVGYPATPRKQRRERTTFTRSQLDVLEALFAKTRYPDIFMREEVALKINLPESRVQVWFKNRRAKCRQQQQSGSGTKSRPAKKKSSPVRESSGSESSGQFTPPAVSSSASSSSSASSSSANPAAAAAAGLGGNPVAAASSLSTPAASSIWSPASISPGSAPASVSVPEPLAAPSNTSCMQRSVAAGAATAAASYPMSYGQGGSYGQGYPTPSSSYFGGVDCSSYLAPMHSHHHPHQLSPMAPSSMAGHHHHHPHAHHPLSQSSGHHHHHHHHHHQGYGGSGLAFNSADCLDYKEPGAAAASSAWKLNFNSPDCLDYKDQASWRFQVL

effect of a mutation on the interaction | Variant
with no effect | H347Y

Variants of: B8
Settings: with co8a1_human COL8A1, P27658
co8a1_human COL8A1, P27658, sequence (P27658 whole entry): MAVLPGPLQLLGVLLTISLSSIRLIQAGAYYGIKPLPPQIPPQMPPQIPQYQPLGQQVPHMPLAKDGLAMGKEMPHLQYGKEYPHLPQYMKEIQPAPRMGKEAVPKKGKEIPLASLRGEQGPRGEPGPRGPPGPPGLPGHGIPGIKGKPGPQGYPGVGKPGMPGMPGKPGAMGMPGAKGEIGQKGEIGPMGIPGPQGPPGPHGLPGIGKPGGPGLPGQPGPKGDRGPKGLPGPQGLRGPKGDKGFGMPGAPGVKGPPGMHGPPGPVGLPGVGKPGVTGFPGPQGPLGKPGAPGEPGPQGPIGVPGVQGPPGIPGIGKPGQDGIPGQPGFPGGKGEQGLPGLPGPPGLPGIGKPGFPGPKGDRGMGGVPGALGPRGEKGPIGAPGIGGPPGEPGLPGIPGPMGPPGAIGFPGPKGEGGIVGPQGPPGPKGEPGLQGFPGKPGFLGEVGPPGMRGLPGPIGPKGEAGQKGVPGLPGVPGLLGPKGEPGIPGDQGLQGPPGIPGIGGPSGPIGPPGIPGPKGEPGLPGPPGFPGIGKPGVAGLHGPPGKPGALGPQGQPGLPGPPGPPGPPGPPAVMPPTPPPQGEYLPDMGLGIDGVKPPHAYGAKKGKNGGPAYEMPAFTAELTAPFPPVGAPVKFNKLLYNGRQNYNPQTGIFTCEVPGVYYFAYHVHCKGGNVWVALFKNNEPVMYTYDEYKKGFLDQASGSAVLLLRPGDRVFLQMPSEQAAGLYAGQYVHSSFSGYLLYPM

effect of a mutation on the interaction | Variant
with no effect | H347Y

Variants of: B8
Settings: with hxa1_human HOXA1, P49639
hxa1_human HOXA1, P49639, sequence (P49639 whole entry): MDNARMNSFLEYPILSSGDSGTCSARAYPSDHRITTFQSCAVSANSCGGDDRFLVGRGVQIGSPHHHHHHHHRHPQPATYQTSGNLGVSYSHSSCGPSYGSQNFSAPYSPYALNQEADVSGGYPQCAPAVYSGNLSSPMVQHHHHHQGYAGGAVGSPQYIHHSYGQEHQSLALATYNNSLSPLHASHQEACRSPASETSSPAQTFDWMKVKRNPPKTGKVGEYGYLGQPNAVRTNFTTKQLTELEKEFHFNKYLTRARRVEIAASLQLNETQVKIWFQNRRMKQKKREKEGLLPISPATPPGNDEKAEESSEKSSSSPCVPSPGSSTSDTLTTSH

effect of a mutation on the interaction | Variant
with no effect | H347Y

Variants of: B9
Settings: with creb3_human CREB3, O43889

effect of a mutation on the interaction | Variant
with no effect | R267H
